# Data published in patent publication US20170322229A1, “HIGH AFFINITY VITAMIN D3 BINDING PROTEINS” (UNIVERSITY OF WASHINGTON, priority 2015, published 2017).
# B1: CDL2: designed 25-D3 binding protein based on scaffold PDB ID 3HX8, a putative ketosteroid isomerase (protein)
# chain: GQSAKEAIEAALADFVKAYNSKDAAGVASKYMDDAAIFPLDMARVDGRQNIQKLWQGLMDMGVSELKLTTLDVQESGDFAFESGSFSLKGPGKDSKLVDVAGKYVVVWRKGQDGGWKLYRTISNLDPAK
# B2: CDL2.2: slightly truncated from HH35.v1/CDL2.1; most advanced variant from the directed evolution efforts (protein)
# chain: QSAKEAIEAALADFVKVYNSKDAAGVASKYMDDAAIFPLDMAPVDGRQNIQKLWQGLMDMGVSEPKFTTLNVQKSGDFAFESGSFSLKGPGKDSKLVGIAGIYVEVWRKGQDGGWKLYRTIANLGP
# B3: CDL1.1: evolved variant of CDL1 with mutations P46S, R55A, H68P, G136V; truncated as well as mutated from 6234 (protein)
# chain: NLYFQGHMNAKEILVHALRLVENGDARGFCDLFHPEGVMEFPYAPSGYKTRFEGAETIWAHMRLFPEPLTIRFTDVQFYETADPDLAIGEFHGDGVATVSGGKLAQDFISVLRTRDGQILLSRIFWNPLRHLEALV
# B4: CDL2.1: evolved variant of CDL2 incorporating 10 mutations scattered around the protein (protein)
# chain: DQSAKEAIEAALADFVKVYNSKDAAGVASKYMDDAAIFPLDMAPVDGRQNIQKLWQGLMDMGVSEPKFTTLNVQKSGDFAFESGSFSLKGPGKDSKLVDIAGIYVEVWRKGQDGGWKLYRTIANLDPAK
# B5: CDL1: designed 25-D3 binder based on scaffold PDB ID 1Z1S, a putative isomerase; 8 mutations from 1Z1S (protein)
# chain: SGREQGHMNAKEILVHALRLVENGDARGFCDLFHPEGVMEFPYAPPGYKTRFEGRETIWAHMRLFPEHLTIRFTDVQFYETADPDLAIGEFHGDGVATVSGGKLAQDFISVLRTRDGQILLSRIFWNPLRHLEALGGVEAAAKIVQGA
# Experiments:
# [1] = Approximate Kd summary (Table 4) / measured binder ranking, method not stated; format: binding; settings: Ligand Target 25-hydroxycholecalciferol
# [2] = Fluorescence polarization binding of 25-D3; settings: read-out: Approximate Kd
# [3] = Yeast surface display and flow cytometry binding/titration against 25-D3; settings: for Kd: yeast surface display, 25-D3
# Source text: We discovered another binder for 25-D3, referred to here as CDL2. […] It was further evolved to investigate and improve its specificity and affinity. To test a broader number of mutants, CDL2 was optimized using ep-PCR as well as small computationally guided library. The computationally guided library was constructed by docking the ligand into the binding site and optimizing the interactions between 25-D3 and the protein using ROSETTA®. To increase the sampling of the ligand, short MD simulations were performed to make small perturbations of the backbone. These computational variants, as well as variants generated via error prone mutagenesis, were expressed on yeast and sorted via fluorescence activated cell sorting. Individual designs sequenced from various rounds of mutagenesis and sorting were sequenced during the evolution to inform further design and mutagenesis strategies. One evolved variant, CDL2.1, incorporated 10 mutations scattered around the protein. Another evolved variant CDL2.2 is the most advanced variant from the directed evolution efforts.
# (§1) Binding activity yeast surface display and flow cytometry, according to methods previously described by Wittrup et al.
# [4] = Yeast surface display and flow cytometry titration against vitamin D3; format: binding; settings: for specificity for 25-D3 over vitamin D3: preference for 25-D3 over non-hydroxylated vitamin D3
# Source text: as §1
Molecule,Kd [1] [nM],Kd [2] [nM],"binding signal for 25-D3 on yeast ([3]; yeast display and flow cytometry, biotinylated 25-D3)",specificity for 25-D3 over vitamin D3 [4],Kd ([3]; read-out: Approximate Kd) [nM],"Kd ([4]; yeast surface display, vitamin D3, read-out: Approximate Kd) [nM]",Kd ([3]; read-out: Kd) [nM]
B1,2100,~2100,exceptionally strong signal,–,–,–,–
B2,–,~188,–,–,–,–,–
B3,229,–,–,about two fold over CDL1,~229,–,–
B4,319,–,–,–,~319,~1900,–
B5,1300,–,–,did not show a significant preference,–,–,~2000
